These substances were tested against antibody anti-FITC IgG1 (prepared in-house) (assay: SPR, Biacore 8K; anti-FITC IgG1 captured on Protein A chip, CD16a protein as analyte).

First: 1600E, recombinant fragment of the extracellular domain of CD16a protein with natural mutation F176V (from UniProt P08637 17-208) (receptor)
Second: 1600WE, recombinant fragment of the extracellular domain of wild-type CD16a protein (from UniProt P08637 17-208) (receptor)
The Kd of the first is 5.4-fold lower: 484 nM for the first, 2600 nM for the second. The first binds more tightly here.

“1602E, recombinant fragment of the extracellular domain of CD16a protein with point mutation Q192P (from UniProt P08637 17-208) (receptor)” and “1604E, recombinant fragment of the extracellular domain of CD16a protein with point mutation L194P (from UniProt P08637 17-208) (receptor)” are within 1.5-fold of each other in Kd: 557 nM for the first, 477 nM for the second.

“1615E, recombinant fragment of the extracellular domain of CD16a protein with point mutation A195V (from UniProt P08637 17-208) (receptor)” and “1623E, recombinant fragment of the extracellular domain of CD16a protein with point mutation V196G (from UniProt P08637 17-208) (receptor)” are within 1.5-fold of each other in Kd: 576 nM for the first, 418 nM for the second.

“1625E, recombinant fragment of the extracellular domain of CD16a protein with point mutation V196Q (from UniProt P08637 17-208) (receptor)” and “1626E, recombinant fragment of the extracellular domain of CD16a protein with point mutation V196M (from UniProt P08637 17-208) (receptor)” are within 1.5-fold of each other in Kd: 415 nM for the first, 476 nM for the second.

“1627E, recombinant fragment of the extracellular domain of CD16a protein with point mutation V196H (from UniProt P08637 17-208) (receptor)” and “1630E, recombinant fragment of the extracellular domain of CD16a protein with point mutation S197P (from UniProt P08637 17-208) (receptor)” are within 1.5-fold of each other in Kd: 402 nM for the first, 448 nM for the second.

“1632E, recombinant fragment of the extracellular domain of CD16a protein with point mutation Q192N (from UniProt P08637 17-208) (receptor)” and “1635E, recombinant fragment of the extracellular domain of CD16a protein with point mutation L194I (from UniProt P08637 17-208) (receptor)” are within 1.5-fold of each other in Kd: 479 nM for the first, 506 nM for the second.

With “1637E, recombinant fragment of the extracellular domain of CD16a protein with point mutation V196S (from UniProt P08637 17-208) (receptor)” the Kd was 391 nM.

Going from “1600E, recombinant fragment of the extracellular domain of CD16a protein with natural mutation F176V (from UniProt P08637 17-208) (receptor)” to “1600WE, recombinant fragment of the extracellular domain of wild-type CD16a protein (from UniProt P08637 17-208) (receptor)”, the koff rises from 0.119 s⁻¹ to 0.258 s⁻¹ (2.2-fold).

“1602E, recombinant fragment of the extracellular domain of CD16a protein with point mutation Q192P (from UniProt P08637 17-208) (receptor)” and “1604E, recombinant fragment of the extracellular domain of CD16a protein with point mutation L194P (from UniProt P08637 17-208) (receptor)” are within 1.5-fold of each other in koff: 0.119 s⁻¹ for the first, 0.113 s⁻¹ for the second.

“1615E, recombinant fragment of the extracellular domain of CD16a protein with point mutation A195V (from UniProt P08637 17-208) (receptor)” and “1623E, recombinant fragment of the extracellular domain of CD16a protein with point mutation V196G (from UniProt P08637 17-208) (receptor)” are within 1.5-fold of each other in koff: 0.113 s⁻¹ for the first, 0.105 s⁻¹ for the second.

“1625E, recombinant fragment of the extracellular domain of CD16a protein with point mutation V196Q (from UniProt P08637 17-208) (receptor)” and “1626E, recombinant fragment of the extracellular domain of CD16a protein with point mutation V196M (from UniProt P08637 17-208) (receptor)” are within 1.5-fold of each other in koff: 0.112 s⁻¹ for the first, 0.114 s⁻¹ for the second.

“1627E, recombinant fragment of the extracellular domain of CD16a protein with point mutation V196H (from UniProt P08637 17-208) (receptor)” and “1630E, recombinant fragment of the extracellular domain of CD16a protein with point mutation S197P (from UniProt P08637 17-208) (receptor)” are within 1.5-fold of each other in koff: 0.107 s⁻¹ for the first, 0.117 s⁻¹ for the second.

“1632E, recombinant fragment of the extracellular domain of CD16a protein with point mutation Q192N (from UniProt P08637 17-208) (receptor)” and “1635E, recombinant fragment of the extracellular domain of CD16a protein with point mutation L194I (from UniProt P08637 17-208) (receptor)” are within 1.5-fold of each other in koff: 0.117 s⁻¹ for the first, 0.121 s⁻¹ for the second.

Work on “1637E, recombinant fragment of the extracellular domain of CD16a protein with point mutation V196S (from UniProt P08637 17-208) (receptor)” yielded a koff of 0.101 s⁻¹.

Compared with “1600E, recombinant fragment of the extracellular domain of CD16a protein with natural mutation F176V (from UniProt P08637 17-208) (receptor)”, “1600WE, recombinant fragment of the extracellular domain of wild-type CD16a protein (from UniProt P08637 17-208) (receptor)” is 2.5-fold lower in kon: 245000 M⁻¹ s⁻¹ for the first, 99500 M⁻¹ s⁻¹ for the second.

“1602E, recombinant fragment of the extracellular domain of CD16a protein with point mutation Q192P (from UniProt P08637 17-208) (receptor)” and “1604E, recombinant fragment of the extracellular domain of CD16a protein with point mutation L194P (from UniProt P08637 17-208) (receptor)” are within 1.5-fold of each other in kon: 214000 M⁻¹ s⁻¹ for the first, 236000 M⁻¹ s⁻¹ for the second.

“1615E, recombinant fragment of the extracellular domain of CD16a protein with point mutation A195V (from UniProt P08637 17-208) (receptor)” and “1623E, recombinant fragment of the extracellular domain of CD16a protein with point mutation V196G (from UniProt P08637 17-208) (receptor)” are within 1.5-fold of each other in kon: 196000 M⁻¹ s⁻¹ for the first, 251000 M⁻¹ s⁻¹ for the second.

“1625E, recombinant fragment of the extracellular domain of CD16a protein with point mutation V196Q (from UniProt P08637 17-208) (receptor)” and “1626E, recombinant fragment of the extracellular domain of CD16a protein with point mutation V196M (from UniProt P08637 17-208) (receptor)” are within 1.5-fold of each other in kon: 270000 M⁻¹ s⁻¹ for the first, 240000 M⁻¹ s⁻¹ for the second.

“1627E, recombinant fragment of the extracellular domain of CD16a protein with point mutation V196H (from UniProt P08637 17-208) (receptor)” and “1630E, recombinant fragment of the extracellular domain of CD16a protein with point mutation S197P (from UniProt P08637 17-208) (receptor)” are within 1.5-fold of each other in kon: 267000 M⁻¹ s⁻¹ for the first, 260000 M⁻¹ s⁻¹ for the second.

“1632E, recombinant fragment of the extracellular domain of CD16a protein with point mutation Q192N (from UniProt P08637 17-208) (receptor)” and “1635E, recombinant fragment of the extracellular domain of CD16a protein with point mutation L194I (from UniProt P08637 17-208) (receptor)” are within 1.5-fold of each other in kon: 244000 M⁻¹ s⁻¹ for the first, 240000 M⁻¹ s⁻¹ for the second.

“1637E, recombinant fragment of the extracellular domain of CD16a protein with point mutation V196S (from UniProt P08637 17-208) (receptor)” was tested, and the kon was 257000 M⁻¹ s⁻¹.
